The values that follow come from US20120207673A1.

Test [1] deals with protein A (UniProt P38507). Briefly: phage ELISA on coated protein A; heat/cool assay, % of untreated sample (n = 2). Background: An ELISA detects its analyte on a solid surface through an enzyme-linked reagent.
Test [2] concerns the target protein A (UniProt P38507). Briefly: phage ELISA on coated protein A; heat/cool assay, % of untreated sample.
Test [3] has as its target protein A (UniProt P38507). Briefly: phage ELISA on coated protein A; signal after 80 C 10 min then 4 C 10 min as % of the untreated sample (heat/cool assay).

Chain of DP47 VH with CDR2 of HEL4 (VH): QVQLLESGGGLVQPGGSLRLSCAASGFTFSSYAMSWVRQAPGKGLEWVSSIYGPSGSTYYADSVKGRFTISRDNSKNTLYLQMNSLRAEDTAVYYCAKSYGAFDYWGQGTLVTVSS

With DP47 VH SA_31/33_DD, the Retained binding to protein A (%) with protein A [1] worked out at 52%.

Substance DP47 VH SYA31-33DED had a Retained binding to protein A (%) with protein A [1] of 69%. In the test with protein A [2], this substance gave a Retained binding to protein A of 67%.

DP47 VH SYA_31-33_DDD: the Retained binding to protein A (%) with protein A [1] is 66%.

In the test with protein A [1], DP47 VH SY_31/32_DD had a Retained binding to protein A (%) of 62%.

Regarding DP47 VH SY_31/32_DE, the Retained binding to protein A (%) with protein A [1] came out at 50%.

DP47 VH YA_32/33_DD returned a Retained binding to protein A (%) with protein A [1] of 64%.

For DP47 VH YA_32/33_ED, the Retained binding to protein A (%) with protein A [1] came to 59%.

Take DP47 VH with CDR2 of HEL4: the Retained binding to protein A in the test with protein A [3] is 4%.

In turn, DP47 VH with CDR3 of HEL4 came in with a Retained binding to protein A with protein A [3] of 3%.
